Data published in paper PMC9786172 (Molecules, 2022).

Legend:
in vivo = assay: in vivo; set-up: species or system Sprague-Dawley rat; details: rat
Description: Chromatographic analysis was performed on a Shimadzu Nexera LC-30AD UPLC system, and mass spectrometric detection was performed on an LCMS-8050 triple quadrupole mass spectrometer (Shimadzu Co., Kyoto, Japan) in the positive ESI and MRM mode. […] The gradient elution of the mobile phase consisting of 0.1% formic acid in water (solvent A) and 0.1% formic acid in acetonitrile (solvent B) was performed at a flow rate of 0.3 mL/min as follows (solvent A:solvent B, v/v): maintained at 19.3 for 0.01 min; ramped from 19.3 to 39.6 for 2.49 min; maintained at 39.6 for 0.01 min; ramped from 39.6 to 90 for 2.99 min; reverted to 19.3 for 0.01 min; and maintained for 1.99 min (total run time: 7.5 min). The ion source parameters were set as follows: nebulizing gas flow, 3 L/min; drying gas flow, 10 L/min; heating gas flow, 10 L/min; interface temperature, 300 °C; desolvation temperature, 250 °C; and heating block temperature, 400 °C. […] Rats underwent surgical implantation of a cannula in the femoral artery under anesthesia, as previously described. The LOC was dissolved in phosphate-buffered saline (pH 5.7). […] A blood sample of approximately 0.3 mL was collected via femoral artery cannulation at various time points (0, 1, 3, 5, 10, 20, 30, 60, 90, 120, 180, 240, 360, 480, and 600 min), then collected in heparin pre-treated microcentrifuge tubes. These blood samples were centrifuged at 4000× g for 10 min to obtain plasma and were frozen at −20 °C until analysis. Non-compartmental analysis was performed using Phoenix WinNonlin ver. 3.1 (Certara USA Inc., Princeton, NJ, USA) to estimate the following pharmacokinetic parameters: AUClast; total area under the plasma concentration versus time curve from time zero to time infinity (AUCinf); Cmax; Tmax; t1/2; and MRTinf. Values were obtained directly from the concentration–time plot. All values are reported as the mean ± standard deviation.

[1] = Stability of analytes in rat plasma samples (method validation)
Description: QC samples were prepared using the same process as that used for the calibration standards.
Plasma samples (100 µL) were mixed with 300 µL of 5% formic acid (in water) and vortexed for 5 min. Then, 500 µL acetonitrile of containing 20 ng/mL IS was added to the resultant mixture and vortexed for 5 min. After centrifugation at 14,500× g for 10 min at 4 °C, 800 µL of the supernatant was collected, dried under vacuum using a SpeedVac (Eyela, Tokyo, Japan), reconstituted with 50 μL of methanol, and injected into the LC-MS/MS system.
Using the calibration standard and QC samples, the present LC-MS/MS method was validated in terms of its selectivity, LLOQ, linearity, accuracy, precision, recovery, and stability according to the United States Food and Drug Administration guidelines for bioanalytical method validation [20].
Stability was determined under various analytical handling and storage conditions, such as bench-top, freeze–thaw, post-preparative, and long-term storage, at two QC levels (LQC and HQC).

[2] = in vivo; cited from earlier work

Row | Structure (SMILES) | Tmax (in vivo; male, Sprague-Dawley, sc) | half-life (in vivo; male, Sprague-Dawley, sc) | level at 1 h (in vivo; male, Sprague-Dawley, sc, 0.122 mg/kg) | Autosampler stability (percentage of drug remaining), LQC ([1]; rat plasma samples, post-preparative, 3 ng/mL, 10 °C for 24 h in the autosampler, LC-MS/MS, mean ± SD, n = 5) | Autosampler stability (percentage of drug remaining), HQC ([1]; rat plasma samples, post-preparative, 800 ng/mL, 10 °C for 24 h in the autosampler, LC-MS/MS, mean ± SD, n = 5) | Bench-top stability (percentage of drug remaining), LQC ([1]; rat plasma, 3 ng/mL, room temperature for 3 h, LC-MS/MS, mean ± SD, n = 5) | Freeze-thaw stability (percentage of drug remaining), LQC ([1]; rat plasma, 3 ng/mL, three freezing and thawing cycles every 12 h at −20 °C, LC-MS/MS, mean ± SD, n = 5) | Long-term stability (percentage of drug remaining), LQC ([1]; rat plasma, 3 ng/mL, −20 °C for 30 d, LC-MS/MS, mean ± SD, n = 5) | Bench-top stability (percentage of drug remaining), HQC ([1]; rat plasma, 800 ng/mL, room temperature for 3 h, LC-MS/MS, mean ± SD, n = 5) | Freeze-thaw stability (percentage of drug remaining), HQC ([1]; rat plasma, 800 ng/mL, three freezing and thawing cycles every 12 h at −20 °C, LC-MS/MS, mean ± SD, n = 5) | Long-term stability (percentage of drug remaining), HQC ([1]; rat plasma, 800 ng/mL, −20 °C for 30 d, LC-MS/MS, mean ± SD, n = 5) | Recovery values after exposure to different stability conditions ([1]; rat plasma, 3 and 800 ng/mL, range over bench-top, autosampler, freeze-thaw and long-term conditions) | Calculated plasma concentration at 60 min after subcutaneous administration of LOC (in vivo) | MRTinf in the intravenous group [2]
1 | CCCCCCCC/C=C\CCCCCCCC(=O)OC[C@H](NC(=O)[C@H](Cc1c[nH]c2ccccc12)NC(=O)[C@H](Cc1c[nH]cn1)NC(=O)[C@@H]1CCC(=O)N1)C(=O)N[C@@H](Cc1ccc(O)cc1)C(=O)N[C@H](CC(C)C)C(=O)N[C@@H](CC(C)C)C(=O)N[C@@H](CCCNC(=N)N)C(=O)N1CCC[C@H]1C(=O)NCC [LOC] | 300 min | 172 ± 66 min | 11.7 ng/mL | 102 ± 9% | 92.7 ±1.2% | 105 ± 7% | 107 ± 4% | 91.2 ± 4.0% | 97.7± 2.0% | 107 ± 4% | 93.4 ± 2.6% | 91.2–107% | – | –
2 | CCNC(=O)[C@@H]1CCCN1C(=O)[C@H](CCCNC(=N)N)NC(=O)[C@H](CC(C)C)NC(=O)[C@@H](CC(C)C)NC(=O)[C@H](Cc1ccc(O)cc1)NC(=O)[C@H](CO)NC(=O)[C@H](Cc1c[nH]c2ccccc12)NC(=O)[C@H](Cc1c[nH]cn1)NC(=O)[C@@H]1CCC(=O)N1 [Leuprolide, pyroGlu-His-Trp-Ser-Tyr-D-Leu-Leu-Arg-Pro-NHEt, reference compound] | 15 min | 38.2 ± 4.3 min | – | – | – | – | – | – | – | – | – | – | 1.86 ng/mL | 28.1 min
